Experimental data from the Immune Epitope Database (IEDB).
pIC50: −log10 of the molar value.

Columns and labels:
Assay in all cases: IEDB peptide-MHC binding, cellular MHC/competitive/fluorescence; ≥ and ≤ were set here for values at or beyond the usual limits of such assays
HLA-A*02:01 = target: HLA-A*02:01
HLA-A*02:02 = target: HLA-A*02:02
HLA-A*02:03 = target: HLA-A*02:03
HLA-A*02:06 = target: HLA-A*02:06
HLA-A*68:02 = target: HLA-A*68:02
HLA-A*03:01 = conditions: source organism: Hepatitis B virus
HLA-A*31:01 = conditions: source organism: Hepatitis B virus
HLA-A*68:01 = conditions: source organism: Hepatitis B virus
[1] = source organism: Vaccinia virus WR
[2] = source organism: Influenza A virus

Row | Sequence | pIC50 (HLA-A*02:01; [1]) | pIC50 (HLA-A*02:02; [1]) | pIC50 (HLA-A*02:03; [1]) | pIC50 (HLA-A*02:06; [1]) | pIC50 (HLA-A*68:02; [1]) | also measured
1 | PAHLINKLL | 4.95 | 5.17 | 5.20 | 4.37 | 4.95 | 
2 | VTKSSSWKDV | ≤ 4.15 | ≤ 4.15 | 4.38 | ≤ 4.15 | 4.39 | 
3 | ALSYSTGA |  |  |  |  |  | pIC50 (HLA-A*02:01; [2]): ≤ 4.15; pIC50 (HLA-A*02:02; [2]): ≤ 4.15; pIC50 (HLA-A*02:03; [2]): 4.59; pIC50 (HLA-A*02:06; [2]): ≤ 4.15; pIC50 (HLA-A*68:02; [2]): ≤ 4.15
4 | TIDNIVTSLA | ≤ 4.15 | ≤ 4.15 | ≤ 4.15 | ≤ 4.15 | ≤ 4.15 | 
5 | FLLTRILTI |  |  |  |  |  | pIC50 (HLA-A*03:01): ≤ 4.15; pIC50 (HLA-A*31:01): ≤ 4.15; pIC50 (HLA-A*68:01): ≤ 4.15; pIC50 (HLA-A*68:02; source organism: Hepatitis B virus): 4.65
6 | LTPFEKEFT | 4.35 | 4.77 | 4.68 | ≤ 4.15 | ≤ 4.15 | 
7 | RVTKRDESSI | 4.25 | 4.91 | 4.97 | 4.65 | 5.06 | 
8 | NINFNNSSII | 4.49 | 5.18 | 4.87 | 4.52 | 5.16 | 
9 | AATKRYPGVM | 4.17 | 4.70 | 4.32 | 4.33 | ≤ 4.15 | 
10 | VMDKNHAIFT | 5.06 | 4.73 | 4.94 | ≤ 4.15 | 4.89 | 
11 | FASADNHPKM | ≤ 4.15 | ≤ 4.15 | 4.32 | ≤ 4.15 | ≤ 4.15 | 
12 | NVKDYSIV |  |  |  |  |  | pIC50 (HLA-A*02:01; [2]): ≤ 4.15; pIC50 (HLA-A*02:02; [2]): ≤ 4.15; pIC50 (HLA-A*02:03; [2]): 5.19; pIC50 (HLA-A*02:06; [2]): ≤ 4.15; pIC50 (HLA-A*68:02; [2]): 4.95
13 | ATALANTI |  |  |  |  |  | pIC50 (HLA-A*02:01; [2]): 4.66; pIC50 (HLA-A*02:02; [2]): 4.37; pIC50 (HLA-A*02:03; [2]): 4.65; pIC50 (HLA-A*02:06; [2]): ≤ 4.15; pIC50 (HLA-A*68:02; [2]): 4.39
14 | AVSVYGAIT | 5.14 | 4.94 | 5.02 | 4.85 | 5.20 | 
15 | PAEMLASI |  |  |  |  |  | pIC50 (HLA-A*02:01; [2]): ≤ 4.15; pIC50 (HLA-A*02:02; [2]): ≤ 4.15; pIC50 (HLA-A*02:03; [2]): ≤ 4.15; pIC50 (HLA-A*02:06; [2]): ≤ 4.15; pIC50 (HLA-A*68:02; [2]): ≤ 4.15
16 | LTDVEKRIL | 4.57 | 4.56 | 4.55 | ≤ 4.15 | ≤ 4.15 | 
17 | RISSSLDQT | 4.20 | 5.17 | 4.89 | 4.56 | 4.17 | 
18 | QTGINNVQSL | 4.32 | 4.69 | 4.61 | 4.27 | 4.94 | 
19 | DVEKEKFVAT | 4.52 | 4.43 | 4.26 | 4.16 | ≤ 4.15 | 
20 | ITDQTVNICI | 5.14 | ≤ 4.15 | ≤ 4.15 | 4.98 | 4.29 | 
21 | KLTKDRKML | 4.25 | 4.61 | 4.44 | ≤ 4.15 | ≤ 4.15 | 
22 | AINKCVDIFT | 4.80 | 4.60 | 4.58 | 4.41 | 4.41 | 
23 | NILGGVLHT | 4.38 | ≤ 4.15 | 4.69 | 5.00 | ≤ 4.15 | 
24 | WLSLLVPFV |  |  |  |  |  | pIC50 (HLA-A*03:01): 4.39; pIC50 (HLA-A*31:01): 4.93; pIC50 (HLA-A*68:01): ≤ 4.15
25 | DMICCDSRIV | 4.46 | 4.95 | 5.22 | 4.72 | 4.87 | 
26 | LIQYRQQLEL | ≤ 4.15 | 4.48 | 4.71 | 4.28 | ≤ 4.15 | 
27 | RINLLVQYGA | 5.04 | 4.99 | 4.81 | 5.12 | 4.68 | 
28 | RAVKLYRKL |  |  |  |  |  | pIC50 (HLA-A*02:01; [2]): 4.27; pIC50 (HLA-A*02:02; [2]): ≤ 4.15; pIC50 (HLA-A*02:03; [2]): 4.30; pIC50 (HLA-A*02:06; [2]): ≤ 4.15; pIC50 (HLA-A*68:02; [2]): ≤ 4.15
